To fix the notation:
B1: TPR t1 (parent)
chain: GACCAAUCUGCCCUCAGAGCUCGAGAACAUCUUCGGAUGCAGAGGAGGCAGGCUUCGGUGGCGCGAUAGCGCCAACGUCCUCAACCUCCAAUGCAUCCCACCACAUGAUGAUGCCUGAAGAGCCUUGGUUUUUUG

Variants of B1 are the subject of the data set. As to the kind of experiment: polymerase ribozyme fitness, log enrichment relative to wild type (log ratio); higher = more active; in vitro selection for triplet polymerase activity. The procedure, abridged: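 Genotype fitness is the logarithm of its enrichment divided by wild-type enrichment, using inverse-variance-weighted averages of replicates. That logarithm is base 2. Enrichment was measured by Illumina sequencing of input and output libraries from one triplicate in vitro selection round, with frozen incubation at −7 °C, on PCR-built, transcribed mutant libraries of each subunit of a heterodimeric triplet polymerase ribozyme, retaining genotypes with ≥10 input reads and ≥1 read per output.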
In the case of C15A U32C G71C, the “polymerase ribozyme fitness (log ratio)” value is -2.71.

With C15U A43U G45C C94G, the “polymerase ribozyme fitness (log ratio)” value was -4.68. With A16U C56G, the “polymerase ribozyme fitness (log ratio)” value was -2.56. Next, A16U U78C: -2.22. Next, A16G G93A G120A G122U U130G: -3.58; A16G C49A C73U: -0.946; C15G C98G G120A C123A C124A: -6.86. Next, C15U G63U U78A G127C: -4.1. C15A A41U: the “polymerase ribozyme fitness (log ratio)” value is -3.45. For C15U G57A G117U the value was -3.3; for A16U A37C C53A A91G U112A, -1.42; for C15G C94A, -3.63. For C15U A16U C76A C115A C123A U130C the value was -5.56; for C15U A50U G120C, -0.665. Next, A16G C22U G45U C64G C86G A121C: -7.27; G17A G48A U87G G117A: -2.48; C15U G35C G69U: -2.64. As for C15U C22G G61C C114G, the “polymerase ribozyme fitness (log ratio)” value is -7.09. Next, A16G C22A G47U G48U C64U C123G: -6.67; A16U G45C C56G A83C: -4.35; A16C G52C C62U: -3.32. In the case of A16U C104U, the “polymerase ribozyme fitness (log ratio)” value is -1.25. For A16U U32C U38G G71A C114G A121U U133A the value was -6.3.

In the case of A16U G63C G120U U125C, the “polymerase ribozyme fitness (log ratio)” value is -0.937. For A16U U96A the value was -2.28; for C15G G110A, -3.78; for G17A A37U U54C C70U, -4.08. G17A C124U: the “polymerase ribozyme fitness (log ratio)” value is -1.79. For G17A C124G the value was 0.0623; for C15A G69C, -3.57; for C15U G42C A46U, -3.23. Next, C15G G63A U116G: -3.64. For G17A U109A G117A C124A the value was -5.22; for C15U C72A C82U, -1.42. With C15U U32C C89A A119G G128C, the “polymerase ribozyme fitness (log ratio)” value was -3.29. For C15U C73U C94A A111C, the “polymerase ribozyme fitness (log ratio)” value was -2.53. Next, C15A U33A G42C U78C C79U A111G: -6.15; C15U G69U: -1.38; C15U G48A: -1.7.

Consider A16U C40U U87G U92A, for which the “polymerase ribozyme fitness (log ratio)” value was -5.02. For A16U A50C C56A A95C, the “polymerase ribozyme fitness (log ratio)” value was -3.91.

Take A16U A27U G61A: the “polymerase ribozyme fitness (log ratio)” value is -4.42. For C15U G52A C102G C124A the value was -5.21; for C15A C73G G117A G127U, -4.62. Consider C15U A41U, for which the “polymerase ribozyme fitness (log ratio)” value was -2.32. C15A G61C: the “polymerase ribozyme fitness (log ratio)” value was -4.23.

As for C15A G61A, the “polymerase ribozyme fitness (log ratio)” value was -2.09. Next, C15G A37C A46U C53A C56G: -4.78; G17A A50U G51U C114G: -6.63. As for C15A G63U C72U U129G U131C, the “polymerase ribozyme fitness (log ratio)” value was -4.85. Next, C15A C20U U109A: -5.4; C15G C56U U87A C115U U131C: -0.823; A16U C49A G63C: -1.43. Next, A16G C49G C56G: -4.65; C15G U92G C97U A118U: -4.66; C15A C49G: -2.46. For C15A A18U C22G U92G the value was -6.59; for A16C C53G G63U U132C, -4.

With A16U G39U, the “polymerase ribozyme fitness (log ratio)” value is -3.47. Next, A16C C49A C94A C124A: -0.594; A16U C82U: -2.17; C15G G44C G47A G69U G135U: -3.36. Next, C15G A83U C115G C123A: -5.38.

Regarding A16C U32G G69A U109C G135A, the “polymerase ribozyme fitness (log ratio)” value is -6.26. Consider C15U C22G U54G G71U G93A G122A C123U, for which the “polymerase ribozyme fitness (log ratio)” value was -4.87. Turning to G17A G48A C102A A119U C123A, the “polymerase ribozyme fitness (log ratio)” value was -6.09. Take C15U G39A G117C G120A: the “polymerase ribozyme fitness (log ratio)” value is -3.48.

In the case of G17A G36U, the “polymerase ribozyme fitness (log ratio)” value was -3.69. Next, A16G G69C A84G C102A C114U C115A: -6.44. Next, G17A C62G: -5.69; C15A C28G G36A C40U G110C U112C C115A G117U G120A: -3.11; C15U C56U: -1.21. For the variant A16C G44U U125G, the “polymerase ribozyme fitness (log ratio)” value was -4.42. For C15U G48C C72G U112A the value was -0.505; for C15U G63A, -2.04; for C15U A16U G42C G61A C89A, -1.37. C15G U112A: the “polymerase ribozyme fitness (log ratio)” value is -1.44. For A16C G47U A119U the value was -5.65. For A16G G65U C73G C89A C123A the value was -7.69. Next, A16U G17C C123U U126C: -2.6; A16G G69C A91U G113U: -3.01; A16G G48A G110A: -2.05. For the variant A16C U87A C123G G128C, the “polymerase ribozyme fitness (log ratio)” value is -1.81.

Source of the values: the RNAGym collection of RNA variant scans (doi:10.1073/pnas.2313332121).
